How the values were obtained:
[1] = biological target: monoclonal IgG antibody in clarified CHO cell supernatant; test: affinity chromatography, 3-column PCC, 1.5 g/L mAb feed, 45% breakthrough, 0.5 min residence time
[2] = biological target: monoclonal IgG antibody in clarified CHO cell supernatant; test: affinity chromatography, 3-column PCC, undiluted supernatant feed, 2.5 min residence time, column switch at 5% breakthrough

dynamic capacity [1]: 43 g/L | dynamic binding capacity [2]: 54 g/L
Substance: SpA variant ligands (tetramers of Zvar), covalently coupled via a C-terminal cysteine to crosslinked agarose beads (designed binder)
